According to publication PMC11373591:

Assays:
[1] = biological target: CD8 binding–deficient HLA.A2 (DT227/228KA) refolded with the 9V NY-ESO-1 peptide (A2^ΔCD8/9V)
[2] = biological target: HLA.A2-H12 / beta-2-microglobulin refolded with the 9V NY-ESO-1 peptide (A2/9V)
[3] = biological target: HLA.A2-H12 / beta-2-microglobulin refolded with the 9V NY-ESO-1 peptide (A2/9V); remark: listed apart in the source

Row | Substance | EC50: antigen density on the SLB at half-maximum T cell activation (Fura-2 calcium response); receptor by CRISPR-Cas9 knock-in (antigen molecules per μm^2) [1] | EC50: antigen density on the SLB at half-maximum T cell activation (Fura-2 calcium response); receptor by CRISPR-Cas9 knock-in (antigen molecules per μm^2) [2] | specific lysis of HLA.A2-expressing K562 cells pulsed with 0.1 nM 9V peptide after 6, 8 and 24 hours of coculture at 1:1 (luciferase); 1G4 by CRISPR-Cas9 [3] [% killing]
1 | 1G4 TCR | 0.0181 | 0.00703 | 65
2 | c58c61 1G4hi TCR | 0.0736 | 0.04 | –
